US20140294844A1 (published 2014)

B1: huPrP23-231 (receptor)
chain: not shown

Assays:
[1] = biological target: bADDL preparation from biotinylated A[beta]1-42 (bA[beta]1-42) (UniProt P05067 672-713)
[2] = biological target: A[beta]-derived diffusible ligands (ADDL) prepared from A[beta]1-42 (UniProt P05067 672-713)
[3] = biological target: B1

Binder | Kd [1] | fold tighter binding than huPrP91-231 [1] | Kd [2] | Kd [3] | Ki [3]
B1 | 82 nM | 100 fold | 100 nM | – | –
ICSM-18 (antibody, V domains shown) VH: EVQLQQSGPELVKPGSSVKISCKASRNTFTDYNLDWVKQSHGKTLEWIGNVYPNNGVTGYNQKFRGKATLTVDKSSSTAYMELHSLTSEDSAVYYCALYYYDVSYWGQGTLVTVSA VL: QIVLTQSPAIMSASPGEKVTMTCSASSSVSYMHWYQQKSGTSPKRWIYDTSKLASGVPARFSGSGSGTSYSLTISSMEAEDAATYFCHQWRSNPYTFGGGTKLEIKR | – | – | – | ~10 nM | ~20 nM
